From patent US20160355575A1 (Hoffmann-La Roche, published 2016)

T1: Aβ fragment 29-40 (human)
T1 peptide: GAIIGLMVGGVV

T2: Aβ fragment 1-16 (human)
T2 construct: also called Aβ1-16; Aβ16
T2 peptide: DAEFRHDSGYEVHHQK

B1: Aβ 16-35 (peptide)
peptide: KLVFFAEDVGSNKGAIIGLM
notes: This fragment is not in the list of fragments said to be tested (1-16, 10-20, 15-25, 22-35, 29-40)
B2: VHH R3VQ (VHH)
VHH: EVQLQASGGGLVQTGDSLRLSCADSGSTFRNYNIGWFRQTPGQAREFVAAVSRTGISTHVADSLQGRFTISRDNAKNTVYLQMNSLKPEDTAVYSCAAGRPGVGAVNRAMDYDYWGQGTQVTVSS
notes: Alpaca VHH, monomeric; Expressed with a His-tag or a Strep-tag; also called R3VQ(His)-NH2 1; R3VQ-NH2 1; not shown: 6-Histidine tag (vector pET23) or Streptavidin-tag (vector pASK IBA2)
B3: R3VQ(His)-N-(DOTA/Gd) conjugate 2c (VHH)
VHH: B2 VHH
modifications: DOTA/Gd randomly on lysine residues; average Gd/protein (1) 2 (3)
notes: Non-site-specific conjugate of R3VQ(His)-NH2 1; not shown: 6-Histidine tag from modified vector pET23
B4: R3VQ(His)-N-(DOTA/Gd) conjugate 2d (VHH)
VHH: B2 VHH
modifications: DOTA/Gd randomly on lysine residues; average Gd/protein (1) 2 (3)
notes: as for B3

Assays:
VHH R3VQ = target: B2; experiment: competitive inhibition ELISA, soluble peptide against plate-coated Aβ antigen
Procedure: (§1) The binding affinity of VHHs was determined as previously described (Friguet B. et al., 1985, Immunol Methods, 77:305-19). Briefly, various concentrations of Aβ peptides (Aβ fragments 1-16, 10-20, 15-25, 22-35 and 29-40) were incubated in solution overnight at 4° C. with a known quantity of VHH until equilibrium was reached. The VHH concentration used was deteimined by preliminary ELISA calibrations. Each mixture (100 μl) was transferred to a well of a microtiter plate previously coated with antigen and was incubated for 20 min at 4° C. The plates were washed with buffer 0.1% Tween 20 in PBS and bound VHHs were detected by adding beta-galactosidase-conjugated goat anti-rabbit Igs (Biosys, Compiegne, France) and 4-methylumbelliferyl […] (Sigma). Fluorescence was read (Fluoroskan, Labsystem, Finland) at 460 nm, after excitation at 355 nm. KD was estimated from the slope of the regression curve obtained by plotting the reciprocal of the fraction of bound antibody versus the reciprocal of the molar concentration of antigen.

Aβ fragment 29-40 = target: T1, Aβ fragment 29-40; experiment: competitive inhibition ELISA with soluble Aβ fragments
Procedure: as §1

Aβ fragment 1-16 = target: T2, Aβ fragment 1-16; experiment: as above
Procedure: as §1

A-beta 42 peptide (Aβ42) = target: T3, A-beta 42 peptide (Aβ42) (human); experiment: competition ELISA in solution (method of Friguet et al.)
T3 construct: Synthetic peptide (Bachem); on the western blot it ran as monomers, dimers and trimers; also called Aβ1-42; amyloid β peptide 42

A-beta 40 peptide (Aβ40) = target: T4, A-beta 40 peptide (Aβ40) (human, biotinylated when bound to the streptavidin-coated ELISA plate); experiment: ELISA on plate-bound Aβ
T4 construct: Aβ42 without the C-terminal amino acids IA; The ELISA methods say A-beta 40 or A-beta 42 (preferably A-beta 40); also called Aβ1-40
T4 sequence (peptide, as listed by the source): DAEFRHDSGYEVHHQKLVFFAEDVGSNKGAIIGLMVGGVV

T3 sequence (peptide, as listed by the source): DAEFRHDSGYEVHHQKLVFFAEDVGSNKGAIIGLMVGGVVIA

Binder: B1
IC50 (VHH R3VQ): 16 nM

Binder: B2
binding result (Aβ fragment 29-40): no binding | binding result (Aβ fragment 1-16): no binding | Kd (A-beta 42 peptide (Aβ42)): 17 nM

Binder: B3
binding in ELISA compared to the original VHH 1 (A-beta 40 peptide (Aβ40)): ~10%

Binder: B4
binding in ELISA compared to the original VHH 1 (A-beta 40 peptide (Aβ40)): ~10%
